Source: the Human Domainome abundance scans (Beltran et al. 2025)
± gives the uncertainty stated by the source.

B1: DnaJ homolog subfamily C member 5, residues 16 to 77; numbered along this chain, Q9H3Z4 (parent)
chain: LYHVLGLDKNATSDDIKKSYRKLALKYHPDKNPDNPEAADKFKEINNAHAILTDATKRNIYD

Variants of: B1
Assay: abundance fitness (aPCA) (normalised: wild type 0, dead -1); higher = more abundant; growth selection in yeast, the domain comes from the species named
Conditions: Homo sapiens

K9S and K9Y are within error of each other in abundance fitness: -0.125 ± 0.076 for the first, -0.163 ± 0.18 for the second.

K9W and K9Q are within error of each other in abundance fitness: -0.499 ± 0.094 for the first, -0.25 ± 0.17 for the second.

K9D and K9H are within error of each other in abundance fitness: -0.05 ± 0.14 for the first, -0.341 ± 0.19 for the second.

K9I and K9R are within error of each other in abundance fitness: -0.099 ± 0.19 for the first, -0.116 ± 0.065 for the second.

K9C and K9N are within error of each other in abundance fitness: -0.246 ± 0.14 for the first, -0.394 ± 0.16 for the second.

K9F and K9T are within error of each other in abundance fitness: -0.281 ± 0.11 for the first, -0.27 ± 0.091 for the second.

First: K9M
Second: K9E
The abundance fitness of the first is lower: -0.458 ± 0.087 for the first, 0.007 ± 0.07 for the second.

Compared with K9G, K9A is higher in abundance fitness: -0.215 ± 0.08 for the first, 0.077 ± 0.082 for the second.

Compared with K9P, K9V is higher in abundance fitness: -0.252 ± 0.096 for the first, -0.004 ± 0.073 for the second.

L23Q and L23A are within error of each other in abundance fitness: -0.334 ± 0.1 for the first, -0.454 ± 0.11 for the second.

L23G and L23P are within error of each other in abundance fitness: -0.308 ± 0.075 for the first, -0.438 ± 0.14 for the second.

First: L23S
Second: L23E
The abundance fitness of the first is lower: -0.423 ± 0.11 for the first, -0.067 ± 0.12 for the second.

Going from L23K to L23F, the abundance fitness falls from -0.247 ± 0.11 to -0.536 ± 0.17.

L23N and L23D are within error of each other in abundance fitness: -0.052 ± 0.21 for the first, -0.129 ± 0.15 for the second.

L23W and L23I are within error of each other in abundance fitness: -0.423 ± 0.084 for the first, -0.736 ± 0.47 for the second.

Compared with L23H, L23Y is higher in abundance fitness: -1.2 ± 0.41 for the first, -0.403 ± 0.17 for the second.

Going from L23M to L23V, the abundance fitness falls from -0.209 ± 0.12 to -0.525 ± 0.076.

Going from D15K to D15P, the abundance fitness falls from -0.17 ± 0.099 to -0.643 ± 0.12.

Compared with D15A, D15I is lower in abundance fitness: -0.042 ± 0.069 for the first, -0.328 ± 0.14 for the second.

D15C and D15M are within error of each other in abundance fitness: -0.24 ± 0.2 for the first, -0.359 ± 0.14 for the second.

Going from D15Y to D15S, the abundance fitness rises from -0.888 ± 0.2 to -0.382 ± 0.092.

First: D15E
Second: D15G
The abundance fitness of the first is higher: -0.067 ± 0.12 for the first, -0.433 ± 0.098 for the second.

D15R and D15H are within error of each other in abundance fitness: -0.693 ± 0.084 for the first, -0.679 ± 0.25 for the second.

D15T and D15F are within error of each other in abundance fitness: -0.367 ± 0.11 for the first, -0.689 ± 0.23 for the second.

First: D15L
Second: D15W
The abundance fitness of the first is lower: -0.412 ± 0.07 for the first, -0.271 ± 0.069 for the second.

Compared with S19D, S19C is higher in abundance fitness: -0.485 ± 0.19 for the first, -0.088 ± 0.12 for the second.

Going from S19V to S19A, the abundance fitness rises from -0.187 ± 0.067 to 0.02 ± 0.078.

Going from S19Q to S19F, the abundance fitness falls from 0.042 ± 0.12 to -0.88 ± 0.16.

Compared with S19K, S19E is higher in abundance fitness: -0.391 ± 0.11 for the first, -0.091 ± 0.088 for the second.

S19R and S19G are within error of each other in abundance fitness: -0.317 ± 0.051 for the first, -0.3 ± 0.065 for the second.

S19T and S19Y are within error of each other in abundance fitness: -0.106 ± 0.12 for the first, -0.299 ± 0.2 for the second.

Compared with S19H, S19W is lower in abundance fitness: -0.333 ± 0.27 for the first, -0.813 ± 0.075 for the second.

S19P and S19I are within error of each other in abundance fitness: -0.516 ± 0.052 for the first, -0.762 ± 0.4 for the second.

Going from A11P to A11L, the abundance fitness falls from -0.536 ± 0.23 to -0.941 ± 0.15.

Going from A11C to A11I, the abundance fitness falls from -0.182 ± 0.22 to -1.49 ± 0.32.

A11K and A11T are within error of each other in abundance fitness: -0.569 ± 0.16 for the first, -0.553 ± 0.16 for the second.

Going from A11M to A11N, the abundance fitness rises from -1.6 ± 0.38 to -0.125 ± 0.36.

First: A11S
Second: A11Q
The abundance fitness of the first is higher: -0.578 ± 0.14 for the first, -1.25 ± 0.33 for the second.

A11E and A11R are within error of each other in abundance fitness: -1.13 ± 0.25 for the first, -0.846 ± 0.1 for the second.

First: A11V
Second: A11W
The abundance fitness of the first is higher: -0.661 ± 0.11 for the first, -1.24 ± 0.21 for the second.

A11G and K26C are within error of each other in abundance fitness: -0.536 ± 0.1 for the first, -0.318 ± 0.16 for the second.

K26A and K26D are within error of each other in abundance fitness: -0.081 ± 0.065 for the first, -0.12 ± 0.14 for the second.

Compared with K26G, K26L is higher in abundance fitness: -0.415 ± 0.079 for the first, -0.075 ± 0.065 for the second.

Going from K26M to K26F, the abundance fitness falls from 0.021 ± 0.083 to -0.385 ± 0.13.

K26I and K26E are within error of each other in abundance fitness: 0.244 ± 0.12 for the first, 0.155 ± 0.08 for the second.

K26H and K22P are within error of each other in abundance fitness: -0.239 ± 0.15 for the first, -0.266 ± 0.12 for the second.

K22A and K22N are within error of each other in abundance fitness: 0.117 ± 0.072 for the first, -0.188 ± 0.32 for the second.

K22R and K22S are within error of each other in abundance fitness: 0.041 ± 0.075 for the first, 0.166 ± 0.099 for the second.

K22H and K22C are within error of each other in abundance fitness: 0.169 ± 0.24 for the first, -0.19 ± 0.13 for the second.

K22Y and K22F are within error of each other in abundance fitness: -0.246 ± 0.14 for the first, -0.16 ± 0.17 for the second.

First: K22M
Second: K22I
The abundance fitness of the first is higher: 0.32 ± 0.12 for the first, -0.179 ± 0.18 for the second.

K22G and K22V are within error of each other in abundance fitness: 0.045 ± 0.078 for the first, 0.168 ± 0.086 for the second.

First: K22W
Second: K22Q
The abundance fitness of the first is lower: -0.339 ± 0.094 for the first, 0.217 ± 0.11 for the second.

Going from K22L to K22E, the abundance fitness rises from 0.039 ± 0.082 to 0.249 ± 0.11.

G6S and G6C are within error of each other in abundance fitness: -0.559 ± 0.069 for the first, -0.466 ± 0.13 for the second.

G6Y and G6N are within error of each other in abundance fitness: -0.671 ± 0.41 for the first, 0.069 ± 0.47 for the second.

Compared with G6L, G6V is lower in abundance fitness: -0.625 ± 0.089 for the first, -1.42 ± 0.16 for the second.

Going from G6A to G6E, the abundance fitness falls from -0.485 ± 0.1 to -0.866 ± 0.17.

G6F and G6W are within error of each other in abundance fitness: -0.985 ± 0.17 for the first, -1.02 ± 0.14 for the second.

Going from G6K to G6D, the abundance fitness rises from -0.751 ± 0.25 to -0.046 ± 0.12.

First: G6P
Second: G6R
The abundance fitness of the first is lower: -0.799 ± 0.12 for the first, -0.488 ± 0.11 for the second.

Compared with G6M, S13A is higher in abundance fitness: -0.655 ± 0.23 for the first, -0.116 ± 0.082 for the second.

Going from S13H to S13T, the abundance fitness rises from -0.496 ± 0.15 to 0.055 ± 0.12.

Compared with S13G, S13M is higher in abundance fitness: -0.376 ± 0.077 for the first, 0.04 ± 0.12 for the second.

Compared with S13E, S13P is lower in abundance fitness: -0.023 ± 0.087 for the first, -0.272 ± 0.089 for the second.

S13V and S13C are within error of each other in abundance fitness: -0.162 ± 0.07 for the first, -0.215 ± 0.12 for the second.

Compared with S13W, S13I is higher in abundance fitness: -0.336 ± 0.098 for the first, 0.046 ± 0.18 for the second.

S13Y and S13F are within error of each other in abundance fitness: -0.188 ± 0.11 for the first, -0.267 ± 0.091 for the second.

Compared with S13R, S13L is higher in abundance fitness: -0.354 ± 0.072 for the first, -0.04 ± 0.073 for the second.

S13N and S13D are within error of each other in abundance fitness: 0.002 ± 0.23 for the first, 0.068 ± 0.11 for the second.

L7Y and L7F are within error of each other in abundance fitness: -1.01 ± 0.22 for the first, -0.734 ± 0.15 for the second.

L7D and L7K are within error of each other in abundance fitness: -0.316 ± 0.14 for the first, -0.365 ± 0.092 for the second.

First: L7R
Second: L7W
The abundance fitness of the first is higher: -0.608 ± 0.07 for the first, -0.949 ± 0.096 for the second.

Going from L7C to L7S, the abundance fitness falls from -0.149 ± 0.1 to -0.345 ± 0.087.

L7H and L7A are within error of each other in abundance fitness: -0.54 ± 0.36 for the first, -0.298 ± 0.085 for the second.

L7I and L7Q are within error of each other in abundance fitness: -0.477 ± 0.18 for the first, -0.309 ± 0.092 for the second.

L7N and L7E are within error of each other in abundance fitness: -0.434 ± 0.22 for the first, -0.298 ± 0.079 for the second.

L7V and L7P are within error of each other in abundance fitness: -0.103 ± 0.075 for the first, -0.231 ± 0.14 for the second.

First: L7T
Second: N10T
The abundance fitness of the first is lower: -0.721 ± 0.14 for the first, -0.073 ± 0.13 for the second.

N10L and N10F are within error of each other in abundance fitness: -0.342 ± 0.075 for the first, -0.371 ± 0.11 for the second.

N10W and N10D are within error of each other in abundance fitness: -0.4 ± 0.068 for the first, -0.343 ± 0.15 for the second.

N10P and N10V are within error of each other in abundance fitness: -0.818 ± 0.14 for the first, -0.711 ± 0.069 for the second.

Compared with N10R, N10I is lower in abundance fitness: -0.464 ± 0.068 for the first, -0.741 ± 0.16 for the second.

For N10A, the abundance fitness was -0.293 ± 0.062.
